Sequences and labels used below:
B1: CPEB3 Ribozyme (parent)
chain: GGGGGCCACAGCAGAAGCGUUCACGUCGCGGCCCCUGUCAGAUUCUGGUGAAUCUGCGAAUUCUGCUGU

The data set covers variants of B1. Put plainly: self-cleavage, relative activity (ratio to wild type); higher = more cleavage; co-transcriptional.
Consider U44G C45A, for which the self-cleavage worked out at 0.932.

Consider U44G G68U, for which the self-cleavage turned out to be 1.03.

Take U44G G68C: the self-cleavage came to 1.01.

For the variant U44G G68A, the self-cleavage was determined as 0.942.

Consider U46A A59C, for which the self-cleavage was found to be 0.802.

Take U46A A59G: the self-cleavage was found to be 1.02.

On to C45A U61G, for which the self-cleavage was 0.6.

For the variant C45A U61A, the self-cleavage was 0.86.

C45U U67C: the self-cleavage was determined as 0.955.

For the variant C45G G48C, the self-cleavage amounted to 1.01.

C45G G48A: the self-cleavage stood at 1.01.

Consider C45G G48U, for which the self-cleavage worked out at 1.02.

Consider U46A U49A, for which the self-cleavage is 1.02.

As for C45U U61C, the self-cleavage is 0.887.

Regarding C45U U61A, the self-cleavage stood at 0.919.

Regarding U44C U46C, the self-cleavage came out at 0.972.

U44C U46A: the self-cleavage was determined as 0.958.

For C45G A59U, the self-cleavage is 0.815.

As to C45G A59C, the self-cleavage was found to be 0.638.

Regarding C45G A59G, the self-cleavage stood at 0.969.

For C45U G65C, the self-cleavage was 0.719.

Consider C45U G65U, for which the self-cleavage came to 0.813.

As for C45G C66G, the self-cleavage stood at 0.877.

With C45A G58C, the self-cleavage was 1.02.

As for C45A G58A, the self-cleavage was found to be 1.

C45U C54A: the self-cleavage was determined as 0.681.

Consider C45G U49C, for which the self-cleavage worked out at 0.915.

Regarding C45G U49G, the self-cleavage is 0.947.

In the case of C45A A59U, the self-cleavage turned out to be 0.793.

For the variant C45A A59C, the self-cleavage stood at 0.613.

Consider C45U A51U, for which the self-cleavage was 0.947.

As to C45U A51C, the self-cleavage is 0.999.

Take C45A G48C: the self-cleavage was 1.01.

For C45A G48U, the self-cleavage came out at 0.976.

U44G G58U: the self-cleavage came to 0.959.

In the case of U44G G58C, the self-cleavage stood at 0.944.

Turning to U44G G58A, the self-cleavage came out at 0.922.

For the variant C45G G58U, the self-cleavage amounted to 1.01.

Turning to C45G G58A, the self-cleavage is 0.919.

On to C45G G58C, for which the self-cleavage worked out at 0.946.

With U44G G47C, the self-cleavage is 0.962.

Regarding U44G G47A, the self-cleavage came to 0.954.

Take U44G G47U: the self-cleavage came to 1.01.

As to C45U U55C, the self-cleavage amounted to 0.755.

For C45U U55G, the self-cleavage amounted to 0.668.

On to C45U U55A, for which the self-cleavage worked out at 0.825.

With C45U A59U, the self-cleavage is 0.837.

With C45U A59G, the self-cleavage was 0.98.

C45G A51C: the self-cleavage turned out to be 1.01.

As to C45G A51U, the self-cleavage was determined as 1.03.

Turning to C45G A51G, the self-cleavage was 1.02.

With C45G G68A, the self-cleavage is 0.942.

For the variant C45G G68C, the self-cleavage was found to be 1.

On to U46C U55C, for which the self-cleavage stood at 0.701.

Turning to U46C U55A, the self-cleavage was determined as 0.773.

U46C U55G: the self-cleavage was determined as 0.768.

Regarding U44C C54A, the self-cleavage is 0.627.

On to U44C C54G, for which the self-cleavage was found to be 0.599.

On to U44C C54U, for which the self-cleavage is 0.816.

Consider C45U G47A, for which the self-cleavage turned out to be 1.03.

As to C45U G47U, the self-cleavage came to 1.02.

On to C45G A52C, for which the self-cleavage is 0.981.

In the case of U44C G68C, the self-cleavage turned out to be 0.949.

For U44C G68A, the self-cleavage was found to be 0.979.

With C45G U64C, the self-cleavage worked out at 0.836.

In the case of C45G U64G, the self-cleavage worked out at 0.739.

Consider U44C U64A, for which the self-cleavage was determined as 0.662.

For U44C U64G, the self-cleavage is 0.719.

For the variant U44C C57G, the self-cleavage is 0.362.

On to U44C C57U, for which the self-cleavage stood at 0.419.

As to U44C C57A, the self-cleavage was found to be 0.301.

On to U44C A52U, for which the self-cleavage is 1.

With U44C A52G, the self-cleavage was determined as 1.01.

Regarding U46C G50A, the self-cleavage amounted to 0.974.

On to U46C G50C, for which the self-cleavage came out at 1.04.

On to U46C A51U, for which the self-cleavage was 0.994.

On to U46C A51G, for which the self-cleavage stood at 0.988.

Turning to U46A A52C, the self-cleavage was found to be 1.01.

As to C45U G48C, the self-cleavage turned out to be 0.975.

Take C45U G48U: the self-cleavage was determined as 1.01.

C45U G48A: the self-cleavage was 0.992.

Take C45A A51C: the self-cleavage turned out to be 0.924.

Take C45A A51G: the self-cleavage is 1.02.

As for U44G U46G, the self-cleavage was 0.909.

Regarding U44G U46A, the self-cleavage was 0.978.

With U44G U46C, the self-cleavage was 0.928.

With U44G G50C, the self-cleavage is 0.949.

Turning to U44G G50U, the self-cleavage is 0.98.

As for U44C U69C, the self-cleavage was 1.07.

On to U44C U69G, for which the self-cleavage turned out to be 1.02.

Turning to U44C U69A, the self-cleavage amounted to 0.927.

As for U44C G65C, the self-cleavage is 0.452.

With U46A G56A, the self-cleavage is 0.997.

With C45U A52C, the self-cleavage stood at 0.988.

Consider C45U A52U, for which the self-cleavage came out at 0.972.

C45U A52G: the self-cleavage was 1.01.

Turning to U46C A59G, the self-cleavage amounted to 1.03.

In the case of U46C A59U, the self-cleavage was 0.847.

Take U46A U62G: the self-cleavage came to 0.925.

In the case of U46A U62C, the self-cleavage was determined as 0.895.

As for C45G U53G, the self-cleavage turned out to be 0.858.

As to C45G U53C, the self-cleavage was 0.806.

Take U46A U64A: the self-cleavage was determined as 0.955.

On to U46A U64G, for which the self-cleavage worked out at 0.964.

For the variant C45U U49A, the self-cleavage worked out at 0.993.

For U44G U61G, the self-cleavage was 0.82.

Turning to U44G U61C, the self-cleavage came to 0.649.

Take U46A G58C: the self-cleavage amounted to 0.961.

With U46A G58A, the self-cleavage amounted to 0.93.

On to U46A G58U, for which the self-cleavage was found to be 0.988.

With U44C U67A, the self-cleavage was found to be 0.954.

On to U44C U67G, for which the self-cleavage is 0.931.

In the case of C45U A60U, the self-cleavage stood at 0.469.

Consider C45U A60C, for which the self-cleavage worked out at 0.33.

C45U A60G: the self-cleavage was 0.9.

As for U44C U49C, the self-cleavage came to 0.83.

Regarding U44C U49A, the self-cleavage amounted to 0.931.

As to U44C U49G, the self-cleavage came out at 0.959.

As for C45A C57G, the self-cleavage worked out at 0.252.

Turning to C45A U67C, the self-cleavage was 0.98.

As to C45A U67A, the self-cleavage was 0.951.

In the case of C45A U67G, the self-cleavage came out at 1.01.

Take U46C G58A: the self-cleavage came out at 0.979.

As to U46C U64G, the self-cleavage was 0.852.

For the variant U46C U64A, the self-cleavage is 0.877.

For U46C U64C, the self-cleavage stood at 0.936.

For U46A U67C, the self-cleavage is 1.01.

For U46A U67G, the self-cleavage was 1.03.

In the case of C45G C54G, the self-cleavage was found to be 0.688.

For the variant C45G C54U, the self-cleavage came out at 0.952.

For U46C U61A, the self-cleavage stood at 0.95.

For the variant U46C U49A, the self-cleavage amounted to 0.996.

U46C U49C: the self-cleavage was 0.913.

With C45U C63A, the self-cleavage was determined as 0.838.

Consider U46C C63U, for which the self-cleavage turned out to be 0.983.

For U46C C63A, the self-cleavage stood at 0.771.

Turning to U46C C63G, the self-cleavage was 0.796.

For the variant C45U G50A, the self-cleavage is 1.01.

With C45U G50C, the self-cleavage stood at 1.02.

As for U46A G47U, the self-cleavage was found to be 0.991.

U46A G47A: the self-cleavage came out at 1.01.

As to C45A U64C, the self-cleavage stood at 0.842.

For the variant C45A U64G, the self-cleavage was determined as 0.809.

C45A U64A: the self-cleavage amounted to 0.821.

For the variant C45A U53A, the self-cleavage was found to be 0.87.

With U44G U64C, the self-cleavage came out at 0.754.

For U44G U64G, the self-cleavage came to 0.84.

As for U46C C54G, the self-cleavage was 0.891.

Consider U46C C54A, for which the self-cleavage is 0.772.

As to U44G A59G, the self-cleavage was found to be 0.951.

In the case of U44G A59U, the self-cleavage was determined as 0.612.

For the variant C45A U46G, the self-cleavage was 0.917.

As to C45A U46A, the self-cleavage came to 1.01.

Turning to C45A U46C, the self-cleavage was 1.

Regarding C45A U49C, the self-cleavage amounted to 1.

As to U46A G48A, the self-cleavage came out at 1.01.

Regarding U46A G48U, the self-cleavage amounted to 0.991.

In the case of U46A G48C, the self-cleavage came out at 1.01.

On to U44G G48C, for which the self-cleavage came to 0.965.

U46C G65C: the self-cleavage was determined as 0.615.

In the case of U46C G65A, the self-cleavage was 0.893.

Turning to U44G G65A, the self-cleavage worked out at 0.812.

Consider U44G G65C, for which the self-cleavage came out at 0.445.

As to U44G G65U, the self-cleavage was 0.674.

On to U44G U69G, for which the self-cleavage was 1.04.

Take U44G U69C: the self-cleavage is 1.04.

Turning to U44G U69A, the self-cleavage is 1.01.

The record behind these values is the RNAGym collection of RNA variant scans (doi:10.7554/elife.80360).
